B1: Azoarcus group I ribozyme (parent)
chain: GUGCCUUGCGCCGGGAAACCACGCAAGGGAUGGUGUCAAAUUCGGCGAAACCUAAGCGCCCGCCCGGGCGUAUGGCAACGCCGAGCCAAGCUUCGGCGCCUGCGCCGAUGAAGGUGUAGAGACUAGACGGCACCCACCUAAGGCAAACGCUAUGGUGAAGGCAUAGUCCAGGGAGUGGCGAAAGUCACACAAACCGG

Variants of: B1
Experiment: reverse-splicing fitness (ratio to wild type); higher = more active; in vitro selection; Mg2+ level not given
Outline: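 An in vitro group I ribozyme library with randomized positions was T7-transcribed and gel-purified. In triplicate, 10 pmol RNA in EPPS pH 7.5 was reacted with 50 pmoles of a 30-nt RNA substrate for 1 h at 37 °C across several added MgCl2 levels (1–48 mM), then stopped with EDTA. Products were reverse transcribed from a substrate-complementary primer, PCR-amplified and sequenced (HiSeq 4000). Fitness is a variant's read proportion after selection over that before, normalised to wild type.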
C82A A111G A120U A145G C150U C169A U176A showed a reverse-splicing fitness of 0.00727. C82A A111G A120U A145G C150U C169A U176G gave a reverse-splicing fitness of 0.00232. With C82A A111G A120U A145G C150U C169A U176C the reverse-splicing fitness was 0.0045. Variant C82A A111G A120U A145U C150G C169A U176A has a reverse-splicing fitness of 0.0039. In the case of C82A A111G A120U A145U C150G C169A U176G, the reverse-splicing fitness is reported as 0.00276. C82A A111G A120U A145U C150G C169A U176C gave a reverse-splicing fitness of 0.00338. Variant C82A A111G A120U A145G C150A C169G U176C has a reverse-splicing fitness of 0.00705. With C82A A111G A120U A145G C150A C169G U176G the reverse-splicing fitness was 0.00282. With C82A A111G A120U A145G C150A C169G U176A the reverse-splicing fitness was 0.015. With C82A A111G A145C C150G C169G the reverse-splicing fitness was 0.00702. Work on C82A A111G A145C C150G C169U yielded a reverse-splicing fitness of 0.00926. Variant C82A A111G A145C C150G C169A has a reverse-splicing fitness of 0.00898. C82A A111G A120U A145U C169A showed a reverse-splicing fitness of 0.00232. Variant C82A A111G A120U A145U C169U has a reverse-splicing fitness of 0.00422. Work on C82A A111G A120U A145U C169G yielded a reverse-splicing fitness of 0.00329. Work on C82A A111G A120U A145U C169U U176A yielded a reverse-splicing fitness of 0.00277. Variant C82A A111G A120U A145U C169U U176G has a reverse-splicing fitness of 0.00199. In the case of C82A A111G A120U A145U C169U U176C, the reverse-splicing fitness is reported as 0.00256. For C82A A111G A120U A145G C150G C169U, the reverse-splicing fitness was 0.00766. Work on C82A A111G A120U A145G C150G C169G yielded a reverse-splicing fitness of 0.00653. With C82A A111G A120U A145G C150G C169A the reverse-splicing fitness was 0.00837. In the case of C82A A111G A120U A145C C150U C169G U176A, the reverse-splicing fitness is reported as 0.00301. With C82A A111G A120U A145C C150U C169G U176G the reverse-splicing fitness was 0.00192. C82A A111G A120U A145C C150U C169G U176C gave a reverse-splicing fitness of 0.0025. In the case of C82A A111G A145G C150G, the reverse-splicing fitness is reported as 0.0329. In the case of C82A A111G A145G C150A, the reverse-splicing fitness is reported as 0.0514. Work on C82A A111G A120U C169U U176A yielded a reverse-splicing fitness of 0.00447. C82A A111G A120U C169U U176C gave a reverse-splicing fitness of 0.00427. In the case of C82A A111G A120U C169U U176G, the reverse-splicing fitness is reported as 0.00235. In the case of C82A A111G A145G C150G C169A, the reverse-splicing fitness is reported as 0.0093. In the case of C82A A111G A145G C150G C169G, the reverse-splicing fitness is reported as 0.00786. Variant C82A A111G A120U C150U C169A U176G has a reverse-splicing fitness of 0.00235. C82A A111G A120U C150U C169A U176A gave a reverse-splicing fitness of 0.00534. C82A A111G A120U C150U C169A U176C gave a reverse-splicing fitness of 0.00346. C82A A111G A120U C150U C169U U176G showed a reverse-splicing fitness of 0.00221. For C82A A111G A120U C150U C169U U176C, the reverse-splicing fitness was 0.00428. Variant C82A A111G A120U C150U C169U U176A has a reverse-splicing fitness of 0.00475. Variant C82A A111G A145G C150A C169G U176G has a reverse-splicing fitness of 0.00702. With C82A A111G A145G C150A C169G U176A the reverse-splicing fitness was 0.0224. With C82A A111G A145G C150A C169G U176C the reverse-splicing fitness was 0.0256. For C82A A111G A145C C169G U176G, the reverse-splicing fitness was 0.00487. For C82A A111G A145C C169G U176A, the reverse-splicing fitness was 0.0278. C82A A111G A145C C169G U176C gave a reverse-splicing fitness of 0.0155. In the case of C82A A111G A120U A145C C150A C169U U176C, the reverse-splicing fitness is reported as 0.00198. Work on C82A A111G A120U A145C C150A C169U U176A yielded a reverse-splicing fitness of 0.00351. Variant C82A A111G A120U A145C C150A C169U U176G has a reverse-splicing fitness of 0.00212. Variant C82A A111G A120U A145U C150A has a reverse-splicing fitness of 0.00648. With C82A A111G A120U A145U C150U the reverse-splicing fitness was 0.0232. Variant C82A A111G A120U A145U C150G has a reverse-splicing fitness of 0.00746. With C82A A111G A120U A145C C150U U176C the reverse-splicing fitness was 0.00422. Variant C82A A111G A120U A145C C150U U176A has a reverse-splicing fitness of 0.00447. Variant C82A A111G A120U A145C C150U U176G has a reverse-splicing fitness of 0.00292. C82A A111G A120U A145C C169U U176G showed a reverse-splicing fitness of 0.00153. Variant C82A A111G A120U A145C C169U U176A has a reverse-splicing fitness of 0.00302. Variant C82A A111G A120U A145C C169U U176C has a reverse-splicing fitness of 0.00282. For C82A A111G A120U A145C C150A C169U, the reverse-splicing fitness was 0.00264. C82A A111G A120U A145U C150G C169G U176G gave a reverse-splicing fitness of 0.00259. For C82A A111G A120U A145U C150G C169G U176A, the reverse-splicing fitness was 0.00352. With C82A A111G A120U A145U C150G C169G U176C the reverse-splicing fitness was 0.00281. Work on C82A A111G A120U C150U U176G yielded a reverse-splicing fitness of 0.00388. C82A A111G A120U C150U U176C showed a reverse-splicing fitness of 0.0108. With C82A A111G A120U C150U U176A the reverse-splicing fitness was 0.00851. For C82A A111G A145C C169A U176C, the reverse-splicing fitness was 0.00756. C82A A111G A145C C169A U176G gave a reverse-splicing fitness of 0.00582. C82A A111G A145C C169A U176A showed a reverse-splicing fitness of 0.0123. C82A A111G A120U A145U U176C gave a reverse-splicing fitness of 0.0146. C82A A111G A120U A145U U176A showed a reverse-splicing fitness of 0.00893. Variant C82A A111G A120U A145U U176G has a reverse-splicing fitness of 0.00433. C82A A111G A120U C150A C169A showed a reverse-splicing fitness of 0.00447. C82A A111G A120U C150A C169G showed a reverse-splicing fitness of 0.00463. With C82A A111G A120U C150A C169U the reverse-splicing fitness was 0.00375. C82A A111G A120U A145C C150A U176A showed a reverse-splicing fitness of 0.003. C82A A111G A120U A145C C150A U176C gave a reverse-splicing fitness of 0.00355. Variant C82A A111G A120U A145C C150A U176G has a reverse-splicing fitness of 0.00207. C82A A111G A145C C150A C169A gave a reverse-splicing fitness of 0.00955. Variant C82A A111G A145C C150A C169G has a reverse-splicing fitness of 0.00918. Work on C82A A111G A145C C150A C169U yielded a reverse-splicing fitness of 0.0104. For C82A A111G A145G C150A U176A, the reverse-splicing fitness was 0.0293. C82A A111G A145G C150A U176C gave a reverse-splicing fitness of 0.0453. With C82A A111G A145G C150A U176G the reverse-splicing fitness was 0.0122. C82A A111G A120U A145G C150U showed a reverse-splicing fitness of 0.0257. Work on C82A A111G A120U A145G C150G yielded a reverse-splicing fitness of 0.00855. C82A A111G A120U A145G C150A showed a reverse-splicing fitness of 0.00991.
